T1: LIN7A, O14910
T1 sequence (O14910 103-200, limits assumed, looked up): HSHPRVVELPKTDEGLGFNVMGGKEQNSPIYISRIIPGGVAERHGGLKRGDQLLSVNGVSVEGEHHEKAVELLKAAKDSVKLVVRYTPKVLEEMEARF

T2: APBA1_2, Q02410
T2 sequence (Q02410 742-832, limits assumed, looked up): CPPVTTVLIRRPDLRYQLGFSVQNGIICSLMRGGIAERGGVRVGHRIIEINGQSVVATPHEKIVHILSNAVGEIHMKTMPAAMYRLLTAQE

T3: ARHGAP21, Q5T5U3
T3 sequence (Q5T5U3 45-169, limits assumed, looked up): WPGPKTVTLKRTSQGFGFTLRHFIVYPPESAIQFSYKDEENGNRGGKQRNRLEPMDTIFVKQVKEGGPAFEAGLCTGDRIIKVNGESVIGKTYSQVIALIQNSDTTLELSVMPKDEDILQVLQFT

T4: DLG3_3, Q92796
T4 sequence (Q92796 374-475, limits assumed, looked up): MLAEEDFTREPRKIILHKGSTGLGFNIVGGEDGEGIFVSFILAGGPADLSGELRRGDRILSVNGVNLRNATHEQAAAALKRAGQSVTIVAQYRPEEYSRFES

T5: LNX2_2, Q8N448
T5 sequence (Q8N448 334-432, limits assumed, looked up): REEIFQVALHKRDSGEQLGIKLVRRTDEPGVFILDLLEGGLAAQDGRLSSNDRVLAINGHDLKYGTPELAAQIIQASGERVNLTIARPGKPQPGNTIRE

T6: MPP6, Q9NZW5
T6 sequence (Q9NZW5 125-219, limits assumed, looked up): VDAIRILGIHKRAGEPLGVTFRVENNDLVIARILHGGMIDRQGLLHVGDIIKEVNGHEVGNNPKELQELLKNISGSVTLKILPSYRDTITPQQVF

T7: TJP3_3, O95049
T7 sequence (O95049 375-456, limits assumed, looked up): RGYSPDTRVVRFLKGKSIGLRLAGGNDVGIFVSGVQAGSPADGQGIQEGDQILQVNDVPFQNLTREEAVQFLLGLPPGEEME

T8: APBA1_1, Q02410
T8 sequence (Q02410 651-752, limits assumed, looked up): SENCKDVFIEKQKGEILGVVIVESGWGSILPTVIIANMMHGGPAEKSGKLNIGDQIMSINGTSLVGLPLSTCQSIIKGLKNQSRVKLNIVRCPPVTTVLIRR

T9: GRIP1_7, Q9Y3R0
T9 sequence (Q9Y3R0 999-1096, limits assumed, looked up): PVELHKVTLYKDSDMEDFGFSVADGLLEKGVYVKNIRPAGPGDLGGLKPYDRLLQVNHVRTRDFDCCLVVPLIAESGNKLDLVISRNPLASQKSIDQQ

T10: SNTB1, Q13884
T10 sequence (Q13884 107-205, limits assumed, looked up): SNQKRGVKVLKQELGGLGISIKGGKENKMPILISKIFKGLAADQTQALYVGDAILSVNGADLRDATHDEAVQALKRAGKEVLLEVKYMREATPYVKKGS

T11: HTRA4, P83105
T11 sequence (P83105 378-476, limits assumed, looked up): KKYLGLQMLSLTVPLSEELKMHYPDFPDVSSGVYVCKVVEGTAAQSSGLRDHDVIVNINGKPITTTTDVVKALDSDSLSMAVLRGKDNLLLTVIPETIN

T12: RAPGEF6, Q8TEU7
T12 sequence (Q8TEU7 525-625, limits assumed, looked up): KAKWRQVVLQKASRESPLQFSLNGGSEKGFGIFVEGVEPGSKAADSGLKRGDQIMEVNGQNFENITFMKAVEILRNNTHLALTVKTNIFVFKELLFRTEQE


Experiments:
Experiment in all cases: holdup assay
Parameters in all cases: key: below the threshold = too weak to quantify, mostly under pKd 3.1 to 4
Conditions in all cases: plain residues with an end cap or a label only (N-terminal biotin on a linker: ado-ado)
LIN7A, O14910 = target: T1, LIN7A, O14910
GRASP, Q7Z6J2 = target: GRASP, Q7Z6J2
Sequence of GRASP, Q7Z6J2 (Q7Z6J2 96-193): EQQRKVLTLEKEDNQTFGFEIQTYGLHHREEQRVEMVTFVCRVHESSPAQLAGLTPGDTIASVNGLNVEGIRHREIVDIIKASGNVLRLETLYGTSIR

APBA1_2, Q02410 = target: T2, APBA1_2, Q02410
ARHGAP21, Q5T5U3 = target: T3, ARHGAP21, Q5T5U3
NHERF2_2, Q15599 = target: NHERF2_2, Q15599
Sequence of NHERF2_2, Q15599 (Q15599 142-238): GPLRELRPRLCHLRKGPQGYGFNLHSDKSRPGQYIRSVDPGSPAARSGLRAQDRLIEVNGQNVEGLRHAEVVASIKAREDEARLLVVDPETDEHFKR

DLG3_3, Q92796 = target: T4, DLG3_3, Q92796
LNX2_2, Q8N448 = target: T5, LNX2_2, Q8N448
MPP6, Q9NZW5 = target: T6, MPP6, Q9NZW5
TJP3_3, O95049 = target: T7, TJP3_3, O95049
APBA1_1, Q02410 = target: T8, APBA1_1, Q02410
PICK1, Q9NRD5 = target: PICK1, Q9NRD5
Sequence of PICK1, Q9NRD5 (Q9NRD5 17-115): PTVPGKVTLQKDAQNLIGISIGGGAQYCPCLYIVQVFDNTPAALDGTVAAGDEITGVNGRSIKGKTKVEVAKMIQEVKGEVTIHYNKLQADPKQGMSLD

NHERF4_1, Q86UT5-2 = target: NHERF4_1, Q86UT5-2
Sequence of NHERF4_1, Q86UT5-2 (Q86UT5 other isoform, or with tags, fused parts or gaps): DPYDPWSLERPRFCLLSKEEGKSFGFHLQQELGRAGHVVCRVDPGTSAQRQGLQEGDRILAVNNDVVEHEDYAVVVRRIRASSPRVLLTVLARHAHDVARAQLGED

DLG4_1, P78352 = target: DLG4_1, P78352
Sequence of DLG4_1, P78352 (P78352 62-152): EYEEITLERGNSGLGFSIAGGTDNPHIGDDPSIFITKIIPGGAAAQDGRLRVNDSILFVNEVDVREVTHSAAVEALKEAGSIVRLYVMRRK

GRIP1_7, Q9Y3R0 = target: T9, GRIP1_7, Q9Y3R0
Inadl_2, Q8NI35 = target: Inadl_2, Q8NI35
Sequence of Inadl_2, Q8NI35 (Q8NI35 238-335): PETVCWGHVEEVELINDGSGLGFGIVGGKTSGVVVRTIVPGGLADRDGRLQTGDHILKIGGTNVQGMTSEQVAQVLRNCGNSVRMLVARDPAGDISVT

NHERF4_4, Q86UT5 = target: NHERF4_4, Q86UT5
Sequence of NHERF4_4, Q86UT5 (Q86UT5 464-550): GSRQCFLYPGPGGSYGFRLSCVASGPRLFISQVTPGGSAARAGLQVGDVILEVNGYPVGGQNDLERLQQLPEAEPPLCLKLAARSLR

TJP2_1, Q9UDY2 = target: TJP2_1, Q9UDY2
Sequence of TJP2_1, Q9UDY2 (Q9UDY2 24-128): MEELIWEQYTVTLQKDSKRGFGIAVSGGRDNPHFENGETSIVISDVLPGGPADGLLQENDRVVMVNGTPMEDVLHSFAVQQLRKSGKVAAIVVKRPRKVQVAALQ

SNTB1, Q13884 = target: T10, SNTB1, Q13884
NOS1, P29475 = target: NOS1, P29475
Sequence of NOS1, P29475 (P29475 9-101): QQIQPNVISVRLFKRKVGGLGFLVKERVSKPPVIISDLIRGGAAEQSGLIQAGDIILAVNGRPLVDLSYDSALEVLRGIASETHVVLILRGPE

MAGI1_1, Q96QZ7 = target: MAGI1_1, Q96QZ7
Sequence of MAGI1_1, Q96QZ7 (Q96QZ7 1-106): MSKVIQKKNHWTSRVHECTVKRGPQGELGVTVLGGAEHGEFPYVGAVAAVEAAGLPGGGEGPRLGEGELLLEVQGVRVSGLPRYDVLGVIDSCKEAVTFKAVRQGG

GRID2IP_1, A4D2P6 = target: GRID2IP_1, A4D2P6
Sequence of GRID2IP_1, A4D2P6 (A4D2P6 1-87): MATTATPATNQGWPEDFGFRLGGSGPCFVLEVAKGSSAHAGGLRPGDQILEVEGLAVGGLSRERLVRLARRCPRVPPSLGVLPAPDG

TJP1_3, Q07157 = target: TJP1_3, Q07157
Sequence of TJP1_3, Q07157 (Q07157 416-512): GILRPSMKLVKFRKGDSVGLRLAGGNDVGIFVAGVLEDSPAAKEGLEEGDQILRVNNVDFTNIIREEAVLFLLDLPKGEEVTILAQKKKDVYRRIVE

HTRA4, P83105 = target: T11, HTRA4, P83105
RAPGEF6, Q8TEU7 = target: T12, RAPGEF6, Q8TEU7
Inadl_9, Q8NI35 = target: Inadl_9, Q8NI35
Sequence of Inadl_9, Q8NI35 (Q8NI35 1530-1615): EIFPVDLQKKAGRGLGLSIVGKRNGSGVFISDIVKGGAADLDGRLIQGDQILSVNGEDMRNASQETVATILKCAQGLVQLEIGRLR

Row | Binder | pKd (LIN7A, O14910) | pKd (GRASP, Q7Z6J2) | pKd (APBA1_2, Q02410) | pKd (ARHGAP21, Q5T5U3) | pKd (NHERF2_2, Q15599) | pKd (DLG3_3, Q92796) | pKd (LNX2_2, Q8N448) | pKd (MPP6, Q9NZW5) | pKd (TJP3_3, O95049) | pKd (APBA1_1, Q02410) | pKd (PICK1, Q9NRD5) | pKd (NHERF4_1, Q86UT5-2) | pKd (DLG4_1, P78352) | pKd (GRIP1_7, Q9Y3R0) | pKd (Inadl_2, Q8NI35) | pKd (NHERF4_4, Q86UT5) | pKd (TJP2_1, Q9UDY2) | pKd (SNTB1, Q13884) | pKd (NOS1, P29475) | pKd (MAGI1_1, Q96QZ7) | further results
1 | GSSSKEGTSV [RRBP1, Q9P2E9] | below the threshold | 3.49 | 4.38 | below the threshold | 3.51 | 3.71 | 4.15 | 3.77 | below the threshold | below the threshold | 4.14 | 3.51 | 4.12 | below the threshold | below the threshold | 3.98 | below the threshold | 3.9 | 3.72 | below the threshold | pKd (GRID2IP_1, A4D2P6): below the threshold; pKd (TJP1_3, Q07157): below the threshold; pKd (HTRA4, P83105): 3.9; pKd (RAPGEF6, Q8TEU7): below the threshold; pKd (Inadl_9, Q8NI35): 3.57
2 | EGGKKRESEA [APPL1, Q9UKG1] | below the threshold | below the threshold | below the threshold | below the threshold | below the threshold | below the threshold | below the threshold | below the threshold | below the threshold | below the threshold | below the threshold | below the threshold | below the threshold | below the threshold | below the threshold | below the threshold | below the threshold | below the threshold | below the threshold | below the threshold | pKd (GRID2IP_1, A4D2P6): below the threshold; pKd (TJP1_3, Q07157): below the threshold; pKd (HTRA4, P83105): below the threshold; pKd (RAPGEF6, Q8TEU7): 3.49; pKd (Inadl_9, Q8NI35): below the threshold
3 | QLAEIAESGL [ITK, Q08881] | 3.65 | 3.69 | below the threshold | 3.87 | 4.27 | 3.55 | below the threshold | below the threshold | below the threshold | 3.52 | below the threshold | 3.91 | below the threshold | below the threshold | below the threshold | below the threshold | below the threshold | 3.67 | below the threshold | 3.62 | pKd (GRID2IP_1, A4D2P6): below the threshold; pKd (TJP1_3, Q07157): below the threshold; pKd (HTRA4, P83105): below the threshold; pKd (RAPGEF6, Q8TEU7): below the threshold; pKd (Inadl_9, Q8NI35): below the threshold
4 | ADRDHASDQL [CTBP1, Q13363] | below the threshold | below the threshold | below the threshold | 4.08 | 3.89 | below the threshold | below the threshold | below the threshold | below the threshold | below the threshold | 4.13 | 4.05 | below the threshold | below the threshold | below the threshold | below the threshold | below the threshold | below the threshold | below the threshold | below the threshold | pKd (GRID2IP_1, A4D2P6): below the threshold; pKd (TJP1_3, Q07157): below the threshold; pKd (HTRA4, P83105): 3.73; pKd (RAPGEF6, Q8TEU7): below the threshold; pKd (Inadl_9, Q8NI35): below the threshold

— PMC9482650, “Quantitative fragmentomics allow affinity mapping of interactomes” (Nature Communications, 2022)
